{"source": "patent US20060052292A1", "about": "(MAXYGEN APS MAXYGEN, published 2006)", "proteins": {"B1": {"name": "apM1(82-244), human adiponectin fragment expressed in CHO K1 cells (other)", "chain": "ETGVPGAEGPRGFPGIQGRKGEPGEGAYVYRSAFSVGLETYVTIPNMPIRFTKIFYNQQNHYDGSTGKFHCNIPGLYYFAYHITVYMKDVKVSLFKKDKAMLFTYDQYQENNVDQASGSVLLHLEVGDQVWLQVYGEGERNGLYADNDNDSTFTGFLLYHDTN", "modifications": "partial hydroxy-Pro at 86, 95 and 104; partial glyco-hydroxy-Lys at 101 (about 60%)", "notes": "Forms a calcium-stabilised homotrimer on native gels; On the Western blot the denatured monomer is detected"}}, "target": "the molecule itself", "assay": "native Tris-Glycine gel, self-association (homotrimer) of apM1(82-244)", "method": "After storage at −20° C. for several weeks the material was verified to have a heterogeneous appearance on a coomassie stained Novex 8-16% Tris-Glycine gel (Invitrogen; Cat. No. EC60452) run under native conditions (FIG. 4, lane 1). […] (In FIG. 4, M is SeeBlue Plus2).", "data": [{"protein": "B1", "values": [{"measurement": "binding result", "value": "binds"}]}]}
